± gives the half width of the 95% confidence interval.

The nature of series [1]: folding stability dG unfold from trypsin proteolysis; higher = more stable. In outline:
(§1)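 Only designs with AlphaFold2 dimer inter-PAE above 15 were retained; each was a mini-protein under 80 residues with no cysteine, in a PA-tagged cDNA display construct. After digestion with trypsin and chymotrypsin and sequencing, K50 was inferred by Bayesian fitting of counts, and unfolding free energy was derived per protease or combined against a sequence-predicted unfolded-state K50 and a shared folded-state K50.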

Series [2] in a line: folding stability dG unfold from chymotrypsin proteolysis; higher = more stable. The gist of the method: as §1
A short description of series [3]: folding stability dG unfold (combined trypsin and chymotrypsin); higher = more stable. The gist of the method:
as §1

Turning to “SAGGMMKIKITIINENGETLTIEIEVPEEDLEEAIKALEDELKKKGYEIESIERVNGKITITVRIKPSAGGS [r16_662_TrROS_Hall]”, the “folding stability dG unfold” value in series [1] was found to be 4.03 ± 0.16 kcal/mol; in series [2], 4.06 ± 0.06 kcal/mol; in series [3], 4.12 ± 0.12 kcal/mol.
In the same order, the values of “SAGGMMKYVVRIKIYNENGEEVKEIEIEIEMSEEEVEELARKLAEKLAEELGVEVKIVEVEIEKLEPSAGGS [r16_140_TrROS_Hall]” are 4.4 ± 0.37 kcal/mol, 4.28 ± 0.2 kcal/mol and 4.39 ± 0.25 kcal/mol.
In the same order, the values of “SAGGMNIVTYTLTIPPGRIEEVKEAIEALGIPVVKVELVEVLPGEGLAIVKIEVPNNVDPEKVKKALSSAGG [r13_725_JUSTAS]” are 3.97 ± 0.19 kcal/mol, 4.13 ± 0.14 kcal/mol and 4.09 ± 0.12 kcal/mol.
Regarding “SAGGMPEVKYLEITITVEVPTEEEALEKLKEELKKLFPNAEIVSVEVEVEEEDGKLTVTVKITVKLPSAGGS [r8_120_TrROS_Hall]”, the “folding stability dG unfold” value in series [1] came to 3.66 ± 0.22 kcal/mol; in series [2] it was 2.48 ± 0.11 kcal/mol; in series [3] it was 3.35 ± 0.16 kcal/mol.
For “SAGGMPIKELTAEEIAALLKEKLGVDVEIEEVKVTVERDENGNYVLRIEVKFKETNETITLEIVLPKSAGGS [r16_42_TrROS_Hall]”, the “folding stability dG unfold” value in series [1] was determined as 2.94 ± 0.093 kcal/mol; in series [2], 4.2 ± 0.16 kcal/mol; in series [3], 3.86 ± 0.14 kcal/mol.
The like results for “SAGGMPIYARIVLYPPETGKFSELEIEFPEFESPDEVVEAAKEIAEKLGGPIARIEIYDPKTGKPFPDSAGG [r13_771_TrMRF]” were, in that order, 0.592 ± 0.094 kcal/mol, 0.281 ± 0.083 kcal/mol and 0.314 ± 0.27 kcal/mol.
The like results for “SAGGMPKLTVTITFEPPDGSTTTTRDFTSVEEAIEALRAVPDIPVEPLEDDVIRARRPDSETTVTIVESAGG [r13_143_JUSTAS]” were, in that order, 0.192 ± 0.07 kcal/mol, -0.796 ± 0.24 kcal/mol and -0.171 ± 0.11 kcal/mol.
In the same order, the values of “SAGGMPKYFAEVDTEPHGDKVKITLRIRDPNGVERELTFELPLSEVIKLLKELPEEFEVFELKFSDESAGGS [r16_298_TrMRF]” are 2.05 ± 0.042 kcal/mol, 3.12 ± 0.034 kcal/mol and 2.71 ± 0.14 kcal/mol.
With “SAGGMPLEDMSLEELKARLEEALEELRAKLPPGEKKTLTLTVTLTVVDKETGETRTVTLTVTLTLPAPSAGG [r13_385_TrROS_Hall]”, the entries for the “folding stability dG unfold” value in series [1], in series [2] and in series [3] were 3.43 ± 0.064 kcal/mol, 4.38 ± 0.052 kcal/mol and 4.16 ± 0.076 kcal/mol, respectively.
In the same order, the values of “SAGGMPPEELEAASLEERIARVRAAGLETATVRRPDGSTLTIDLGEEGPVTITTTTPPGETTTATLPSAGGS [r8_51_JUSTAS]” are -1.04 ± 0.55 kcal/mol, 0.975 ± 0.042 kcal/mol and 0.654 ± 0.08 kcal/mol.
The like results for “SAGGMPPGDPVKVNVQIRIRMRDPNGKKPELTVPIEYNVQSKEDARDAILKIAKELADEYGYEIEVFSAGGS [r8_149_TrROS]” were, in that order, 0.711 ± 0.041 kcal/mol, 1.52 ± 0.12 kcal/mol and 1.31 ± 0.24 kcal/mol.
In the same order, the values of “SAGGMPPGSFRVRARRPVPLFVRVRLPNDPDVTVTFPVTVPAELELPVNSPEALEALREAGFEIEPASAGGS [r8_482_TrMRF]” are 0.608 ± 0.14 kcal/mol, 0.114 ± 0.33 kcal/mol and 0.357 ± 0.18 kcal/mol.
In the case of “SAGGMPVPVLIVVPEDKIEEIIKKIREETDEDVEIKAFKLPDGRVLLLITFNDPQLAEDFLKKFGFGSAGGS [r16_172_TrMRF]”, the results for the “folding stability dG unfold” value in series [1], in series [2] and in series [3] were 4.27 ± 0.23 kcal/mol, 5.17 ± 0.14 kcal/mol and 5.13 ± 0.17 kcal/mol, respectively.
Regarding “SAGGMPVRVLITYESGEIPVTIPVDPNKVVEAEVELEDKTVKITVDPKAKTIKVDAPPSFKFEVLDPSAGGS [r16_761_JUSTAS]”, the “folding stability dG unfold” value in series [1] came out at 0.35 ± 0.13 kcal/mol; in series [2], 0.257 ± 0.084 kcal/mol; in series [3] it was 0.277 ± 0.18 kcal/mol.
In the same order, the values of “SAGGMPVTVTIVVPPGTERELAEELAEKYAKEGADVEFEERPGGLVLTMTLPGGEVVTMEIRDPAQASAGGS [r16_406_JUSTAS]” are 2.3 ± 0.056 kcal/mol, 2.382 ± 0.023 kcal/mol and 2.34 ± 0.057 kcal/mol.
Take “SAGGMPYRLDAVRVEVRPRPDGGPLLVVELTYPDGSRETAVFDSPEDLLRALENSPRFSEITLLPSVSAGGS [r16_757_TrMRF]”: the “folding stability dG unfold” value in series [1] stood at 1.01 ± 0.017 kcal/mol; in series [2] it was 0.16 ± 0.088 kcal/mol; in series [3], 0.739 ± 0.046 kcal/mol.
In the same order, the values of “SAGGMQALLRLPDTDEVVVLPDELLEAIASGDPERLAALPPEVREVISNVAELVVVPPPDGDPRPEGGSAGG [r13_233_TrMRF]” are 0.419 ± 0.032 kcal/mol, 0.496 ± 0.15 kcal/mol and 0.614 ± 0.15 kcal/mol.
In the same order, the values of “SAGGMRIELVRTYIEEPDENGKLKGSGYREVLVLRPPPPVIRVPPELLEEAEELRKKLDGPVEPEELGSAGG [r19_315_JUSTAS]” are 3.63 ± 0.38 kcal/mol, 3.6 ± 0.18 kcal/mol and 3.84 ± 0.42 kcal/mol.

Values taken from the supplement of paper PMC12764529.
